B1: Lipopolysaccharide-induced tumor necrosis factor-alpha factor (Homo sapiens), Q99732 (parent)
chain: MSVPGPYQAATGPSSAPSAPPSYEETVAVNSYYPTPPAPMPGPTTGLVTGPDGKGMNPPSYYTQPAPIPNNNPITVQTVYVQHPITFLDRPIQMCCPSCNKMIVSQLSYNAGALTWLSCGSLCLLGCIAGCCFIPFCVDALQDVDHYCPNCRALLGTYKRL
partner: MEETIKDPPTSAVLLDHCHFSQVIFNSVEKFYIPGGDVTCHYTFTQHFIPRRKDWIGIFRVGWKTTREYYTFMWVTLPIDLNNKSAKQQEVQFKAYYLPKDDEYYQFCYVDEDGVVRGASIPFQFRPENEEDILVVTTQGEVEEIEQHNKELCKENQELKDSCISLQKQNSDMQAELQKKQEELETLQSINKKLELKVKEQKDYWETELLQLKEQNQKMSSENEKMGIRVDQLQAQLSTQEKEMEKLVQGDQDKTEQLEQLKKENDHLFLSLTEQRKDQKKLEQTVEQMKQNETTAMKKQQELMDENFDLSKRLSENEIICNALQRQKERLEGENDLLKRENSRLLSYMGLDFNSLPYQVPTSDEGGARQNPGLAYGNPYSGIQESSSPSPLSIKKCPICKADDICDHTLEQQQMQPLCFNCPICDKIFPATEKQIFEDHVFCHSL
B2: ATP synthase mitochondrial F1 complex assembly factor 2 (Homo sapiens), Q8N5M1 (parent)
chain: MWRSCLRLRDGGRRLLNRPAGGPSASMSPGPTIPSPARAYAPPTERKRFYQNVSITQGEGGFEINLDHRKLKTPQAKLFTVPSEALAIAVATEWDSQQDTIKYYTMHLTTLCNTSLDNPTQRNKDQLIRAAVKFLDTDTICYRVEEPETLVELQRNEWDPIIEWAEKRYGVEISSSTSIMGPSIPAKTREVLVSHLASYNTWALQGIEFVAAQLKSMVLTLGLIDLRLTVEQAVLLSRLEEEYQIQKWGNIEWAHDYELQELRARTAAGTLFIHLCSESTTVKHKLLKE
partner: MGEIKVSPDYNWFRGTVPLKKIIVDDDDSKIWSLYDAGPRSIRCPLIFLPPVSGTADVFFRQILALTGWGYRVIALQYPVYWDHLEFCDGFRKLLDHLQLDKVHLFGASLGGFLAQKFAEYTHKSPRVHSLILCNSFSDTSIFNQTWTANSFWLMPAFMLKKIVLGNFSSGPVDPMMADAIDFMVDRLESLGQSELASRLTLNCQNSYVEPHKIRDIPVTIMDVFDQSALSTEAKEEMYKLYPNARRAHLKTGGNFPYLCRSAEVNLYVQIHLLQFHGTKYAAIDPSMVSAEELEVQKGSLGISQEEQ
B3: PiggyBac transposable element-derived protein 1 (Homo sapiens), Q96JS3 (parent)
chain: MYEALPGPAPENEDGLVKVKEEDPTWEQVCNSQEGSSHTQEICRLRFRHFCYQEAHGPQEALAQLRELCHQWLRPEMHTKEQIMELLVLEQFLTILPKELQPCVKTYPLESGEEAVTVLENLETGSGDTGQQASVYIQGQDMHPMVAEYQGVSLECQSLQLLPGITTLKCEPPQRPQGNPQEVSGPVPHGSAHLQEKNPRDKAVVPVFNPVRSQTLVKTEEETAQAVAAEKWSHLSLTRRNLCGNSAQETVMSLSPMTEEIVTKDRLFKAKQETSEEMEQSGEASGKPNRECAPQIPCSTPIATERTVAHLNTLKDRHPGDLWARMHISSLEYAAGDITRKGRKKDKARVSELLQGLSFSGDSDVEKDNEPEIQPAQKKLKVSCFPEKSWTKRDIKPNFPSWSALDSGLLNLKSEKLNPVELFELFFDDETFNLIVNETNNYASQKNVSLEVTVQEMRCVFGVLLLSGFMRHPRREMYWEVSDTDQNLVRDAIRRDRFELIFSNLHFADNGHLDQKDKFTKLRPLIKQMNKNFLLYAPLEEYYCFDKSMCECFDSDQFLNGKPIRIGYKIWCGTTTQGYLVWFEPYQEESTMKVDEDPDLGLGGNLVMNFADVLLERGQYPYHLCFDSFFTSVKLLSALKKKGVRATGTIRENRTEKCPLMNVEHMKKMKRGYFDFRIEENNEIILCRWYGDGIISLCSNAVGIEPVNEVSCCDADNEEIPQISQPSIVKVYDECKEGVAKMDQIISKYRVRIRSKKWYSILVSYMIDVAMNNAWQLHRACNPGASLDPLDFRRFVAHFYLEHNAHLSD
B4: H/ACA ribonucleoprotein complex subunit 3 (Homo sapiens), Q9NPE3 (parent)
chain: MFLQYYLNEQGDRVYTLKKFDPMGQQTCSAHPARFSPDDKYSRHRITIKKRFKVLMTQQPRPVL
partner: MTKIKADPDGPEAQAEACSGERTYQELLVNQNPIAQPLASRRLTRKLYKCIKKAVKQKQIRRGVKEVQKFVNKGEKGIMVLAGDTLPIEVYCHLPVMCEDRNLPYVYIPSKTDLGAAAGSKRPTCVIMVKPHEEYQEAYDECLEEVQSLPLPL
B5: Retinol dehydrogenase 12 (Homo sapiens), Q96NR8 (parent)
chain: MLVTLGLLTSFFSFLYMVAPSIRKFFAGGVCRTNVQLPGKVVVITGANTGIGKETARELASRGARVYIACRDVLKGESAASEIRVDTKNSQVLVRKLDLSDTKSIRAFAEGFLAEEKQLHILINNAGVMMCPYSKTADGFETHLGVNHLGHFLLTYLLLERLKVSAPARVVNVSSVAHHIGKIPFHDLQSEKRYSRGFAYCHSKLANVLFTRELAKRLQGTGVTTYAVHPGVVRSELVRHSSLLCLLWRLFSPFVKTAREGAQTSLHCALAEGLEPLSGKYFSDCKRTWVSPRARNNKTAERLWNVSCELLGIRWE
B6: Carbonic anhydrase-related protein (Homo sapiens), P35219 (parent)
chain: MADLSFIEDTVAFPEKEEDEEEEEEGVEWGYEEGVEWGLVFPDANGEYQSPINLNSREARYDPSLLDVRLSPNYVVCRDCEVTNDGHTIQVILKSKSVLSGGPLPQGHEFELYEVRFHWGRENQRGSEHTVNFKAFPMELHLIHWNSTLFGSIDEAVGKPHGIAIIALFVQIGKEHVGLKAVTEILQDIQYKGKSKTIPCFNPNTLLPDPLLRDYWVYEGSLTIPPCSEGVTWILFRYPLTISQLQIEEFRRLRTHVKGAELVEGCDGILGDNFRPTQPLSDRVIRAAFQ
partner: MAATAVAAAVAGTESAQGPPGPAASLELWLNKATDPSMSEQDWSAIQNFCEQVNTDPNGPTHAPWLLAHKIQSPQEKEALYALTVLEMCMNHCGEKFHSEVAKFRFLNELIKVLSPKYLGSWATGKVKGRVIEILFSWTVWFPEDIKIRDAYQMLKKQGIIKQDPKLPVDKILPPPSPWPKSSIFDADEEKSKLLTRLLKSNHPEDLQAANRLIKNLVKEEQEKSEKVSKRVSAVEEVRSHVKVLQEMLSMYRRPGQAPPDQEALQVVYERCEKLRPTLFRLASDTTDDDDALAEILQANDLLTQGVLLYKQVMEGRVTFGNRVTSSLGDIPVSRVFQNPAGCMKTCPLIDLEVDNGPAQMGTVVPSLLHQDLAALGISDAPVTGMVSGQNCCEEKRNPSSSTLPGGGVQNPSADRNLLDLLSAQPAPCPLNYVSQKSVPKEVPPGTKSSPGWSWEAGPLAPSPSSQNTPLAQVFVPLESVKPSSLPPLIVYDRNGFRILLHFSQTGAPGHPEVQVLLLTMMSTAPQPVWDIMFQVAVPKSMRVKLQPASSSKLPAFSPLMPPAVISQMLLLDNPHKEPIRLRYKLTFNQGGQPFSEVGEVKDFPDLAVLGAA
B7: Forkhead box protein P3 (Homo sapiens), Q9BZS1 (parent)
chain: MPNPRPGKPSAPSLALGPSPGASPSWRAAPKASDLLGARGPGGTFQGRDLRGGAHASSSSLNPMPPSQLQLPTLPLVMVAPSGARLGPLPHLQALLQDRPHFMHQLSTVDAHARTPVLQVHPLESPAMISLTPPTTATGVFSLKARPGLPPGINVASLEWVSREPALLCTFPNPSAPRKDSTLSAVPQSSYPLLANGVCKWPGCEKVFEEPEDFLKHCQADHLLDEKGRAQCLLQREMVQSLEQQLVLEKEKLSAMQAHLAGKMALTKASSVASSDKGSCCIVAAGSQGPVVPAWSGPREAPDSLFAVRRHLWGSHGNSTFPEFLHNMDYFKFHNMRPPFTYATLIRWAILEAPEKQRTLNEIYHWFTRMFAFFRNHPATWKNAIRHNLSLHKCFVRVESEKGAVWTVDELEFRKKRSQRPSRCSNPTPGP
B8: U4/U6 small nuclear ribonucleoprotein Prp31 (Homo sapiens), Q8WWY3 (parent)
chain: MSLADELLADLEEAAEEEEGGSYGEEEEEPAIEDVQEETQLDLSGDSVKTIAKLWDSKMFAEIMMKIEEYISKQAKASEVMGPVEAAPEYRVIVDANNLTVEIENELNIIHKFIRDKYSKRFPELESLVPNALDYIRTVKELGNSLDKCKNNENLQQILTNATIMVVSVTASTTQGQQLSEEELERLEEACDMALELNASKHRIYEYVESRMSFIAPNLSIIIGASTAAKIMGVAGGLTNLSKMPACNIMLLGAQRKTLSGFSSTSVLPHTGYIYHSDIVQSLPPDLRRKAARLVAAKCTLAARVDSFHESTEGKVGYELKDEIERKFDKWQEPPPVKQVKPLPAPLDGQRKKRGGRRYRKMKERLGLTEIRKQANRMSFGEIEEDAYQEDLGFSLGHLGKSGSGRVRQTQVNEATKARISKTLQRTLQKQSVVYGGKSTIRDRSSGTASSVAFTPLQGLEIVNPQAAEKKVAEANQKYFSSMAEFLKVKGEKSGLMST
partner: B1 partner
B9: Emerin (Homo sapiens), P50402 (parent)
chain: MDNYADLSDTELTTLLRRYNIPHGPVVGSTRRLYEKKIFEYETQRRRLSPPSSSAASSYSFSDLNSTRGDADMYDLPKKEDALLYQSKGYNDDYYEESYFTTRTYGEPESAGPSRAVRQSVTSFPDADAFHHQVHDDDLLSSSEEECKDRERPMYGRDSAYQSITHYRPVSASRSSLDLSYYPTSSSTSFMSSSSSSSSWLTRRAIRPENRAPGAGLGQDRQVPLWGQLLLFLVFVIVLFFIYHFMQAEEGNPF

Variants of: B1
Conditions: with caco2_human CALCOCO2, Q13137

effect of a mutation on the interaction	Variant
with no effect	I92V
disrupting interaction strength	G112S
disrupting interaction strength	A111G

Variants of: B2
Conditions: with spg21_human SPG21, Q9NZD8

effect of a mutation on the interaction	Variant
disrupting interaction strength	W94R

Variants of: B3
Conditions: with NR4A1, P22736-2
Sequence of NR4A1, P22736-2 (P22736 other isoform, or with tags, fused parts or gaps): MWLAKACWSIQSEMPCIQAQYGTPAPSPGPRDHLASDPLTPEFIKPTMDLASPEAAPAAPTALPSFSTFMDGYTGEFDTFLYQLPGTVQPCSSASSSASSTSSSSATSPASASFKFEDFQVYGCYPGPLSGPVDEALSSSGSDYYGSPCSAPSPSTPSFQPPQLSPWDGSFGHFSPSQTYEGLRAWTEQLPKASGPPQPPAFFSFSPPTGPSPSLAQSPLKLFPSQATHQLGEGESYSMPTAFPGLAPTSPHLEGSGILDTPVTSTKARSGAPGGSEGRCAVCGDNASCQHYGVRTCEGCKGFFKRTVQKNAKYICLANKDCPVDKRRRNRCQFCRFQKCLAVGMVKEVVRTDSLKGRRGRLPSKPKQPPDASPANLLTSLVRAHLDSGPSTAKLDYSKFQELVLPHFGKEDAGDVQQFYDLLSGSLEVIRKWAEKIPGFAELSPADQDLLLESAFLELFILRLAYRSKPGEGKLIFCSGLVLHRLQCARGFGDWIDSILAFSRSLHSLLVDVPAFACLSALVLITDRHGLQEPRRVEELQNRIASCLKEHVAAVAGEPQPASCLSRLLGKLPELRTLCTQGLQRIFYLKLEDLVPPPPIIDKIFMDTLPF

effect of a mutation on the interaction	Variant
with no effect	I678V
with no effect	H806D
with no effect	G244E
with no effect	P256L
with no effect	Q248E

Variants of: B3
Conditions: with znf24_human ZNF24, P17028
Sequence of znf24_human ZNF24, P17028 (P17028 whole entry): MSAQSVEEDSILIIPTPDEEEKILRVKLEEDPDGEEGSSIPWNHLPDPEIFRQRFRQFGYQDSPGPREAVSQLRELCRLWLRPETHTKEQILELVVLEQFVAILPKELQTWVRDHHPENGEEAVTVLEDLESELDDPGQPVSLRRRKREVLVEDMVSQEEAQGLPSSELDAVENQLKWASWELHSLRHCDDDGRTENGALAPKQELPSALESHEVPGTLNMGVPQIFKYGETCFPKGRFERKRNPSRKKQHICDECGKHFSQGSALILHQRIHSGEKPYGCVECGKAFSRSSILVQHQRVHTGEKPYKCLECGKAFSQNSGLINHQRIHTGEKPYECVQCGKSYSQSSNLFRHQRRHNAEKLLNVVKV

effect of a mutation on the interaction	Variant
with no effect	I678V
with no effect	H806D
with no effect	G244E
with no effect	P256L
with no effect	Q248E

Variants of: B3
Conditions: with zn496_human ZNF496, Q96IT1
Sequence of zn496_human ZNF496, Q96IT1 (Q96IT1 whole entry): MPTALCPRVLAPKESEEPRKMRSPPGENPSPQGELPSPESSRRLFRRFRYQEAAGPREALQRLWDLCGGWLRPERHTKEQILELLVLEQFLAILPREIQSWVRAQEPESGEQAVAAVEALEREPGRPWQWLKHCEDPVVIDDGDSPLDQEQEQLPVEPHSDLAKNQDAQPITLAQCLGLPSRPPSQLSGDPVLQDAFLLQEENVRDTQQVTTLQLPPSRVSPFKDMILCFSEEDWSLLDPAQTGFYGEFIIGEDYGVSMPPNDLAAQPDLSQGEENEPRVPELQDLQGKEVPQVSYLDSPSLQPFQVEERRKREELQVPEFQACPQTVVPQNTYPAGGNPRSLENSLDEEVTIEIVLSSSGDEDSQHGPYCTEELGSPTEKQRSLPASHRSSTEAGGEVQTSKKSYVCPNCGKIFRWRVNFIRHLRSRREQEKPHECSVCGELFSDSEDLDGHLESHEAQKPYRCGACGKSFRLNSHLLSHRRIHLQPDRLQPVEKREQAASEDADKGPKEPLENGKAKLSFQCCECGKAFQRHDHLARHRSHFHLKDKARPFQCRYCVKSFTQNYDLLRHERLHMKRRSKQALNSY

effect of a mutation on the interaction	Variant
with no effect	I678V
with no effect	H806D
with no effect	G244E
with no effect	P256L
with no effect	Q248E

Variants of: B3
Conditions: with zsc22_human ZSCAN22, P10073
Sequence of zsc22_human ZSCAN22, P10073 (P10073 whole entry): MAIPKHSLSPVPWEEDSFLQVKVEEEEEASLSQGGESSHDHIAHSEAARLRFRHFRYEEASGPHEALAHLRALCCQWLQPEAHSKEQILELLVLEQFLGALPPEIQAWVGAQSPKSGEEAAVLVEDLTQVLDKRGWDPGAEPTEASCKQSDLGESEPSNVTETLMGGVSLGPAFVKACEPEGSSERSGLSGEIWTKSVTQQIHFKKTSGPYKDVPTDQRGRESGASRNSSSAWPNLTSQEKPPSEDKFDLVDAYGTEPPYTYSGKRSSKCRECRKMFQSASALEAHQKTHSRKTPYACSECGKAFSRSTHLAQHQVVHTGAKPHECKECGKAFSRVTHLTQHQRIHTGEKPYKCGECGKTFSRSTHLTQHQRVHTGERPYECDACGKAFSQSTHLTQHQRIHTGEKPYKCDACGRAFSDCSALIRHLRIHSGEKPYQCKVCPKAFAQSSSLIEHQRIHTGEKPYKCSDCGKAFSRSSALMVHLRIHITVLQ

effect of a mutation on the interaction	Variant
with no effect	I678V
with no effect	H806D
with no effect	G244E
with no effect	P256L
with no effect	Q248E

Variants of: B3
Conditions: with meox2_human MEOX2, P50222
Target sequence in this assay (P50222 whole entry): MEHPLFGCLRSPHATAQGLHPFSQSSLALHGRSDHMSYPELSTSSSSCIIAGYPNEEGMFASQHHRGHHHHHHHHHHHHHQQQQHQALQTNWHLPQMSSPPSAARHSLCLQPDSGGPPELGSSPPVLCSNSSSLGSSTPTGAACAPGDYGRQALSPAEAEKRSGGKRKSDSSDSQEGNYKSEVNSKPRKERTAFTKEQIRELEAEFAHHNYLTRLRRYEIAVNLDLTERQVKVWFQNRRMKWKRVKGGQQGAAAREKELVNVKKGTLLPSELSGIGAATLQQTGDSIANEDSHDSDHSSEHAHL

effect of a mutation on the interaction	Variant
with no effect	I678V
with no effect	H806D
with no effect	G244E
with no effect	P256L
with no effect	Q248E

Variants of: B4
Conditions: with nhp2_human NHP2, Q9NX24

effect of a mutation on the interaction	Variant
with no effect	R34W

Variants of: B5
Conditions: with RBPMS

Variant	effect of a mutation on the interaction
T49M	with no effect
L99I	with no effect

More lines, now with the values ahead:

effect of a mutation on the interaction	Variant
with no effect	P230A
with no effect	C285Y

Variants of: B6
Conditions: with gga2_human GGA2, Q9UJY4

effect of a mutation on the interaction	Variant
disrupting interaction strength	S100P

Variants of: B7
Conditions: with RBPMS

effect of a mutation on the interaction	Variant
with no effect	G52V
disrupting interaction strength	I363V
with no effect	P187L
disrupting interaction strength	Q70H

Variants of: B7
Conditions: with pr20e_human PRR20E

effect of a mutation on the interaction	Variant
with no effect	G52V
disrupting interaction strength	I363V
with no effect	P187L
disrupting interaction strength	Q70H

Variants of: B8
Conditions: with caco2_human CALCOCO2, Q13137

effect of a mutation on the interaction	Variant
with no effect	L107V

Variants of: B9
Conditions: with vapb_human VAPB

effect of a mutation on the interaction	Variant
with no effect	D72V

Variants of: B9
Conditions: with tri42_human TRIM42, Q8IWZ5
Sequence of tri42_human TRIM42, Q8IWZ5 (Q8IWZ5 whole entry): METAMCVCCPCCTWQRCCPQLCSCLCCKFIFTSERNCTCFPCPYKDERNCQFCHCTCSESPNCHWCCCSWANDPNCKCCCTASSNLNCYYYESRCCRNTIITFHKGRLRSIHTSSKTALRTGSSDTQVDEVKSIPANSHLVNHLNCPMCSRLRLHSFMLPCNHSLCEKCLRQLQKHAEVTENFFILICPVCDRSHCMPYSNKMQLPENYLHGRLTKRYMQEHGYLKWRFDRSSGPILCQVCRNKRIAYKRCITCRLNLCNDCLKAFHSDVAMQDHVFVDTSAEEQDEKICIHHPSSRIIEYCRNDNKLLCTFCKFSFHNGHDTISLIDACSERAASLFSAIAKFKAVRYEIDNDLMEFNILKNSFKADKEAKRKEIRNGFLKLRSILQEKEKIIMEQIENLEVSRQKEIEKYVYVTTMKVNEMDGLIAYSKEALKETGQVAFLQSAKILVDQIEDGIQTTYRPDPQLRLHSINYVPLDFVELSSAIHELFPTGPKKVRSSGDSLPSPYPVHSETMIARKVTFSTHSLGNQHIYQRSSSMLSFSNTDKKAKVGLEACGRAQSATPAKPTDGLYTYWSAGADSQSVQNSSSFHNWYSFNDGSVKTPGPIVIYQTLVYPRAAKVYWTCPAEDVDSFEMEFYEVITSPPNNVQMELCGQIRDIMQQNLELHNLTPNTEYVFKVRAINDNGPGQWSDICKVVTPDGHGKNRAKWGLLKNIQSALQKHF

effect of a mutation on the interaction	Variant
with no effect	D72V

Variants of: B9
Conditions: with stx4_human STX4, Q12846
Sequence of stx4_human STX4, Q12846 (Q12846 whole entry): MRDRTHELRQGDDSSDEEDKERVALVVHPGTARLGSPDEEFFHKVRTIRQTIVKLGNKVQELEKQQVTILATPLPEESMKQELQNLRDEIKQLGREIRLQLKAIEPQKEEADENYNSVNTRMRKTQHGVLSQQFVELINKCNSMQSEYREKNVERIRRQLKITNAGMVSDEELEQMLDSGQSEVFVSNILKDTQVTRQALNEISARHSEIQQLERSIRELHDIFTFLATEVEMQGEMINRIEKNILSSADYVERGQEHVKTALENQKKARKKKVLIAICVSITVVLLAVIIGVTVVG

effect of a mutation on the interaction	Variant
with no effect	D72V

Variants of: B9
Conditions: with meox2_human MEOX2, P50222
Target sequence in this assay (P50222 whole entry): as the sequence (P50222 whole entry) above

effect of a mutation on the interaction	Variant
with no effect	D72V

Variants of: B9
Conditions: with ccd33_human CCDC33, Q8N5R6
Sequence of ccd33_human CCDC33, Q8N5R6 (Q8N5R6 whole entry): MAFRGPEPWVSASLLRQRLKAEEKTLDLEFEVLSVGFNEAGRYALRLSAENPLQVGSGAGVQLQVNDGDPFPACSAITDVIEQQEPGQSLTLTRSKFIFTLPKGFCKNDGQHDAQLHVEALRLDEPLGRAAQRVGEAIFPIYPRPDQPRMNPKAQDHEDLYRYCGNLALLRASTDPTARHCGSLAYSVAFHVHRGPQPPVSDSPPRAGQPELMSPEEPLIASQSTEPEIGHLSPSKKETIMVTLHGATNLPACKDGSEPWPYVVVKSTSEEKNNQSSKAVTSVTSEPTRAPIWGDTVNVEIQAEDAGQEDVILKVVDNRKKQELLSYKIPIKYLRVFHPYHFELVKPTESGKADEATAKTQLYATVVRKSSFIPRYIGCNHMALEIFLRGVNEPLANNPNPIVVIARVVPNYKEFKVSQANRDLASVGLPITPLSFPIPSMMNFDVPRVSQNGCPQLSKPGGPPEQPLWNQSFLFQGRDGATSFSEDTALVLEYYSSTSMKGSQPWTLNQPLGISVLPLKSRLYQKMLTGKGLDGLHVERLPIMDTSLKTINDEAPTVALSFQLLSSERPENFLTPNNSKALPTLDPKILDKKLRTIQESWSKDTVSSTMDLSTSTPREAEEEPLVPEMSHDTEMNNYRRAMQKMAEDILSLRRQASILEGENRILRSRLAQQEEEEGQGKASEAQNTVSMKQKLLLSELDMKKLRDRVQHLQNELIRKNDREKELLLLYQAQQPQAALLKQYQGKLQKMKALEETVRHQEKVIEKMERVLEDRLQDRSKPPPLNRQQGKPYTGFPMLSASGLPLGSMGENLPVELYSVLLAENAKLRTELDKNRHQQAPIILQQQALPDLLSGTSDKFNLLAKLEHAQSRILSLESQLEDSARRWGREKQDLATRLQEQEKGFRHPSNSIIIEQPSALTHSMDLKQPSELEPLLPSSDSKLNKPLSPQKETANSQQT

effect of a mutation on the interaction	Variant
with no effect	D72V

From IntAct's records for PubMed 25910212
